We go through three substances from US20260209266A1.

For experiment [1], the target named is Protein A (immobilized on a chromatography column) (UniProt P38507). Nature of the experiment: Protein A chromatography (rProtein A FF), step gradient, 20 mM sodium citrate, 1 M NaCl.
For experiment [2] the target is unchanged. Kind of experiment: Protein A chromatography, linear pH gradient.

Substance “differentially modified heterodimeric human IgG4 (Fc/ΔAdpFc) (from UniProt P01861 99-220; P01861 99-220)” registered an elution pH from Protein A column in experiment [1] of 4 pH.
In experiment [1], “differentially modified heterodimeric human IgG2 Fc/ΔAdpFc (from UniProt P01859 99-219; P01859 99-219)” had an elution pH from Protein A column of 4.5 pH.
“IgG1 heterodimer having two IgG1 heavy chains identical but for an H435R/Y436F dipeptide modification in one CH3 domain (antibody)” registered an elution pH from Protein A column in experiment [2] of 3.9 pH.
